{"source": "patent US20090175790A1", "target": "WT HCN1 (mHCN1) (mouse (mHCN1)) (UniProt O88704)", "sequence (O88704 whole entry)": "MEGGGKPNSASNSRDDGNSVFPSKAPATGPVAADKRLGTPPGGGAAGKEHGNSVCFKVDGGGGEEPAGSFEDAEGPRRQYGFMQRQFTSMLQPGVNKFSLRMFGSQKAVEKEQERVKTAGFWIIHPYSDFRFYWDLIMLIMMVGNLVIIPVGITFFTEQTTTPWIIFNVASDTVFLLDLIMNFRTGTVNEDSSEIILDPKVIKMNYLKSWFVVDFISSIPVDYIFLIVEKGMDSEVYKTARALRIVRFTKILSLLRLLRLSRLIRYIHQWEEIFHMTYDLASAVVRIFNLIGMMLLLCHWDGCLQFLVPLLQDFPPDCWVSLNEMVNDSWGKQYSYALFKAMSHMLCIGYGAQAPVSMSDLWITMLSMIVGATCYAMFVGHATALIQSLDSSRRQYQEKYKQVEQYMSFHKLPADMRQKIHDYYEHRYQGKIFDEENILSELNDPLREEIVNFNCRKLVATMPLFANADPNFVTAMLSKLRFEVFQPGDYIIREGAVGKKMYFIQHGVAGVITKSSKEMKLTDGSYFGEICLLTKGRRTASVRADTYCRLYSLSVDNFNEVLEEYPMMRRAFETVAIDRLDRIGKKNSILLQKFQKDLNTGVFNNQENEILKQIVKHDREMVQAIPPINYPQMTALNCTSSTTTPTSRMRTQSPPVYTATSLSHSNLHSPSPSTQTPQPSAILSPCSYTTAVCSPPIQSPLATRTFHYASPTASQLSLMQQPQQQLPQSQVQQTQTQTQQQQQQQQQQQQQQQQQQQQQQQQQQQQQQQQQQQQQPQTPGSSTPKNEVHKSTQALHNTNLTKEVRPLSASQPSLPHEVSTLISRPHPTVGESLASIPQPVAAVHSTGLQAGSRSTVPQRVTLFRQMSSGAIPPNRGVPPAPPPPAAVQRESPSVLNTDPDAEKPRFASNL", "assay": "cell-based or functional assay", "data": [{"substance": "HCN1-AAA (mHCN1 with the triple mutation GYG365-367AAA) (from UniProt O88704 1-910)", "values": [{"measurement": "current reduction, WTHCN1:HCN1-AAA cRNA ratio 1:1 (total 25 ng), Xenopus oocytes (% current reduction)", "result": 91.7}, {"measurement": "current reduction, WTHCN1:HCN1-AAA cRNA ratio 1:2 (total 25 ng), Xenopus oocytes (% current reduction)", "result": 97.9}, {"measurement": "current reduction, WTHCN1:HCN1-AAA cRNA ratio 2:1 (total 25 ng), Xenopus oocytes (% current reduction)", "result": 78.7}, {"measurement": "current reduction, WTHCN1:HCN1-AAA cRNA ratio 3:1 (total 25 ng), Xenopus oocytes (% current reduction)", "result": 68.3}, {"measurement": "current reduction, WTHCN1:HCN1-AAA cRNA ratio 4:1 (total 25 ng), Xenopus oocytes (% current reduction)", "result": 55.2}, {"measurement": "whole-cell current at -140 mV in Xenopus oocytes, co-injection of 50 nL WT HCN1 and 50 nL HCN1-AAA cRNA against WT HCN1 alone (current reduction)", "result": 85.2, "unit": "%"}]}]}
